Results: PMC9242855, “Mechanism of replication origin melting nucleated by CMG helicase assembly” (Nature, 2022)

T1: Mcm4 (S. cerevisiae, UniProt P30665 1-933)
T1 construct: Mcm4, subunit of the yeast MCM (Mcm2–7) helicase; Subunit seen within the dCMGE structure; source: purified within Mcm2–7–Cdt1 on the basis of previously established protocols
T1 sequence: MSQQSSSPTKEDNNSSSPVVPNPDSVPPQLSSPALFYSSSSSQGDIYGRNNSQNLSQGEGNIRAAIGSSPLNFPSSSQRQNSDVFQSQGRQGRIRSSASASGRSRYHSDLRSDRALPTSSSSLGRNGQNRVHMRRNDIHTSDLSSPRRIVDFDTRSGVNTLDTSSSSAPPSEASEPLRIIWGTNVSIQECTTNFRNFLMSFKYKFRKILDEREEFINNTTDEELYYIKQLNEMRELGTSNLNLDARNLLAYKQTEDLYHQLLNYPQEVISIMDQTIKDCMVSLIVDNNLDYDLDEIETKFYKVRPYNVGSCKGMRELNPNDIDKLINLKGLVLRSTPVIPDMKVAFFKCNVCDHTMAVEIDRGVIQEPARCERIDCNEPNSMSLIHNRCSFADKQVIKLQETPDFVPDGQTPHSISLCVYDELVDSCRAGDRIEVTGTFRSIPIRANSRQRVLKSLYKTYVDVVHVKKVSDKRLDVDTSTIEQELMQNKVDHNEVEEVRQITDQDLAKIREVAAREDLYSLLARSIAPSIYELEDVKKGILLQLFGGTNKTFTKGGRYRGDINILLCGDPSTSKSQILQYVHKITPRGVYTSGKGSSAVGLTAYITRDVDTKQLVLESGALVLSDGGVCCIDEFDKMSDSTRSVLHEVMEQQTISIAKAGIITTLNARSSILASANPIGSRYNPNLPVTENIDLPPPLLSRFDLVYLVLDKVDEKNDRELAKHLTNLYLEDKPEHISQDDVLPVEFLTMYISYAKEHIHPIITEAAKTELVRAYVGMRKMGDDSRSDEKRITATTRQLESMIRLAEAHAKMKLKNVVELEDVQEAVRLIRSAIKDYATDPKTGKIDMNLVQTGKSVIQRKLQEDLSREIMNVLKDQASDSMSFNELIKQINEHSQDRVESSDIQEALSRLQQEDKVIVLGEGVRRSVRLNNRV

B1: Mcm6 (natural protein, S. cerevisiae)
chain: MSSPFPADTPSSNRPSNSSPPPSSIGAGFGSSSGLDSQIGSRLHFPSSSQPHVSNSQTGPFVNDSTQFSSQRLQTDGSATNDMEGNEPARSFKSRALNHVKKVDDVTGEKVREAFEQFLEDFSVQSTDTGEVEKVYRAQIEFMKIYDLNTIYIDYQHLSMRENGALAMAISEQYYRFLPFLQKGLRRVVRKYAPELLNTSDSLKRSEGDEGQADEDEQQDDDMNGSSLPRDSGSSAAPGNGTSAMATRSITTSTSPEQTERVFQISFFNLPTVHRIRDIRSEKIGSLLSISGTVTRTSEVRPELYKASFTCDMCRAIVDNVEQSFKYTEPTFCPNPSCENRAFWTLNVTRSRFLDWQKVRIQENANEIPTGSMPRTLDVILRGDSVERAKPGDRCKFTGVEIVVPDVTQLGLPGVKPSSTLDTRGISKTTEGLNSGVTGLRSLGVRDLTYKISFLACHVISIGSNIGASSPDANSNNRETELQMAANLQANNVYQDNERDQEVFLNSLSSDEINELKEMVKDEHIYDKLVRSIAPAVFGHEAVKKGILLQMLGGVHKSTVEGIKLRGDINICVVGDPSTSKSQFLKYVVGFAPRSVYTSGKASSAAGLTAAVVRDEEGGDYTIEAGALMLADNGICCIDEFDKMDISDQVAIHEAMEQQTISIAKAGIHATLNARTSILAAANPVGGRYNRKLSLRGNLNMTAPIMSRFDLFFVILDDCNEKIDTELASHIVDLHMKRDEAIEPPFSAEQLRRYIKYARTFKPILTKEARSYLVEKYKELRKDDAQGFSRSSYRITVRQLESMIRLSEAIARANCVDEITPSFIAEAYDLLRQSIIRVDVDDVEMDEEFDNIESQSHAASGNNDDNDDGTGSGVITSEPPADIEEGQSEATARPGTSEKKKTTVTYDKYVSMMNMIVRKIAEVDREGAEELTAVDIVDWYLLQKENDLGSLAEYWEERRLAFKVIKRLVKDRILMEIHGTRHNLRDLENEENENNKTVYVIHPNCEVLDQLEPQDSS
notes: Mcm6, subunit of the yeast MCM (Mcm2–7) helicase; Subunit seen within the dCMGE structure; source: purified within Mcm2–7–Cdt1 on the basis of previously established protocols
B2: Mcm7 (natural protein, S. cerevisiae)
chain: MSAALPSIQLPVDYNNLFNEITDFLVTFKQDTLSSDATRNENEDENLDAENIEQHLLEKGPKYMAMLQKVANRELNSVIIDLDDILQYQNEKFLQGTQADDLVSAIQQNANHFTELFCRAIDNNMPLPTKEIDYKDDVLDVILNQRRLRNERMLSDRTNEIRSENLMDTTMDPPSSMNDALREVVEDETELFPPNLTRRYFLYFKPLSQNCARRYRKKAISSKPLSVRQIKGDFLGQLITVRGIITRVSDVKPAVEVIAYTCDQCGYEVFQEVNSRTFTPLSECTSEECSQNQTKGQLFMSTRASKFSAFQECKIQELSQQVPVGHIPRSLNIHVNGTLVRSLSPGDIVDVTGIFLPAPYTGFKALKAGLLTETYLEAQFVRQHKKKFASFSLTSDVEERVMELITSGDVYNRLAKSIAPEIYGNLDVKKALLLLLVGGVDKRVGDGMKIRGDINVCLMGDPGVAKSQLLKAICKISPRGVYTTGKGSSGVGLTAAVMKDPVTDEMILEGGALVLADNGICCIDEFDKMDESDRTAIHEVMEQQTISISKAGINTTLNARTSILAAANPLYGRYNPRLSPLDNINLPAALLSRFDILFLMLDIPSRDDDEKLAEHVTYVHMHNKQPDLDFTPVEPSKMREYIAYAKTKRPVMSEAVNDYVVQAYIRLRQDSKREMDSKFSFGQATPRTLLGIIRLSQALAKLRLADMVDIDDVEEALRLVRVSKESLYQETNKSKEDESPTTKIFTIIKKMLQETGKNTLSYENIVKTVRLRGFTMLQLSNCIQEYSYLNVWHLINEGNTLKFVDDGTMDTDQEDSLVSTPKLAPQTTASANVSAQDSDIDLQDA
notes: Mcm7, subunit of the yeast MCM (Mcm2–7) helicase; Subunit seen within the dCMGE structure; source: purified within Mcm2–7–Cdt1 on the basis of previously established protocols

Experiments:
Test in all cases: cryo-EM structure; dCMGE assembled from purified yeast proteins on nucleosome-flanked (chromatinized) ARS1 origin DNA with 5 mM ATP; undiluted CMG assembly reaction frozen on grids; dimer map at limited resolution, symmetry-expanded CMGE at 3.5 Å
[1] = biological target: the molecule itself
Mcm3 = biological target: T2, Mcm3 (S. cerevisiae, UniProt P24279 1-971); settings: both partners purified
T2 construct: Mcm3, subunit of the yeast MCM (Mcm2–7) helicase; Subunit seen within the dCMGE structure; source: purified within Mcm2–7–Cdt1 on the basis of previously established protocols

Mcm4 = biological target: T1, Mcm4; settings: both partners purified

T2 sequence (P24279 whole entry): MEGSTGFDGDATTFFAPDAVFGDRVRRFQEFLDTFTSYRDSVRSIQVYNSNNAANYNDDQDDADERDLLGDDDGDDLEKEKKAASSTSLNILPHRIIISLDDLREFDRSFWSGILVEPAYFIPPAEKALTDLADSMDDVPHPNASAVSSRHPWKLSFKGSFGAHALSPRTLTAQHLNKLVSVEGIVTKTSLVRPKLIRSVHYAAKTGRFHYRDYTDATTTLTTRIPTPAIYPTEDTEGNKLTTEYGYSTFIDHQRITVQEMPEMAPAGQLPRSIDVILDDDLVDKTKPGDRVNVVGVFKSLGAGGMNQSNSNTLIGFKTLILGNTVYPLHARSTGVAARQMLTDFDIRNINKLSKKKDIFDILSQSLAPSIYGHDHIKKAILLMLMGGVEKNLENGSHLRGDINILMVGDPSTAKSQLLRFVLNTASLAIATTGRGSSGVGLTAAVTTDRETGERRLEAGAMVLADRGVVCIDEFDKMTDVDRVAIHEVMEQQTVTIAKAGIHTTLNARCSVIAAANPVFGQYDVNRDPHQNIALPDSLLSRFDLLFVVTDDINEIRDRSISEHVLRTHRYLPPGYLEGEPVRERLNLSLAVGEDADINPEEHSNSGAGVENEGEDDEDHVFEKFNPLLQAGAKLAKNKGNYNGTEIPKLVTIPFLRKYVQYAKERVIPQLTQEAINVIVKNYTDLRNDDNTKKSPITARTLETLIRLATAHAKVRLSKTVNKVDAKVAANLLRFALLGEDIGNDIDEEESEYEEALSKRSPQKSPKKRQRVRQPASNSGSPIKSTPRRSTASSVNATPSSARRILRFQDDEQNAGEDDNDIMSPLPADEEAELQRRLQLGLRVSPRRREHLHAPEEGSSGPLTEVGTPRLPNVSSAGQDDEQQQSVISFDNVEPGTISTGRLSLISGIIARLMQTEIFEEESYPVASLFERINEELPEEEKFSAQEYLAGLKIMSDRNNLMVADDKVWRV

| Binder | binding result [1] | binding result (Mcm3) | binding result (Mcm4) |
| --- | --- | --- | --- |
| B1 | binds | – | – |
| B2 | – | binds | binds |
